Measurements: IntAct's records for PubMed 28258151

B1: Complement factor H (Homo sapiens), P08603 (parent)
chain: MRLLAKIICLMLWAICVAEDCNELPPRRNTEILTGSWSDQTYPEGTQAIYKCRPGYRSLGNVIMVCRKGEWVALNPLRKCQKRPCGHPGDTPFGTFTLTGGNVFEYGVKAVYTCNEGYQLLGEINYRECDTDGWTNDIPICEVVKCLPVTAPENGKIVSSAMEPDREYHFGQAVRFVCNSGYKIEGDEEMHCSDDGFWSKEKPKCVEISCKSPDVINGSPISQKIIYKENERFQYKCNMGYEYSERGDAVCTESGWRPLPSCEEKSCDNPYIPNGDYSPLRIKHRTGDEITYQCRNGFYPATRGNTAKCTSTGWIPAPRCTLKPCDYPDIKHGGLYHENMRRPYFPVAVGKYYSYYCDEHFETPSGSYWDHIHCTQDGWSPAVPCLRKCYFPYLENGYNQNYGRKFVQGKSIDVACHPGYALPKAQTTVTCMENGWSPTPRCIRVKTCSKSSIDIENGFISESQYTYALKEKAKYQCKLGYVTADGETSGSITCGKDGWSAQPTCIKSCDIPVFMNARTKNDFTWFKLNDTLDYECHDGYESNTGSTTGSIVCGYNGWSDLPICYERECELPKIDVHLVPDRKKDQYKVGEVLKFSCKPGFTIVGPNSVQCYHFGLSPDLPICKEQVQSCGPPPELLNGNVKEKTKEEYGHSEVVEYYCNPRFLMKGPNKIQCVDGEWTTLPVCIVEESTCGDIPELEHGWAQLSSPPYYYGDSVEFNCSESFTMIGHRSITCIHGVWTQLPQCVAIDKLKKCKSSNLIILEEHLKNKKEFDHNSNIRYRCRGKEGWIHTVCINGRWDPEVNCSMAQIQLCPPPPQIPNSHNMTTTLNYRDGEKVSVLCQENYLIQEGEEITCKDGRWQSIPLCVEKIPCSQPPQIEHGTINSSRSSQESYAHGTKLSYTCEGGFRISEENETTCYMGKWSSPPQCEGLPCKSPPEISHGVVAHMSDSYQYGEEVTYKCFEGFGIDGPAIAKCLGEKWSHPPSCIKTDCLSLPSFENAIPMGEKKDVYKAGEQVTYTCATYYKMDGASNVTCINSRWTGRPTCRDTSCVNPPTVQNAYIVSRQMSKYPSGERVRYQCRSPYEMFGDEEVMCLNGNWTEPPQCKDSTGKCGPPPPIDNGDITSFPLSVYAPASSVEYQCQNLYQLEGNKRITCRNGQWSEPPKCLHPCVISREIMENYNIALRWTAKQKLYSRTGESVEFVCKRGYRLSSRSHTLRTTCWDGKLEYPTCAKR

Variants of: B1
Conditions: with sdre_staam sdrE

Variant	effect of a mutation on the interaction
T1216A	increasing interaction
C1218A	increasing interaction
L1214A	increasing interaction
W1219A	with no effect
H1212A	increasing interaction
T1217A	with no effect
R1215A	with no effect
S1208A	disrupting interaction
S1211A	decreasing interaction
P1226A	decreasing interaction
E1224A	increasing interaction
D1220A	with no effect
L1223A	increasing interaction
S1209A	decreasing interaction
L1207A	decreasing interaction
R1206A	disrupting interaction
Y1225A	increasing interaction
R1210A	increasing interaction
K1222A	with no effect
T1213A	increasing interaction
